Data taken from the supplement of paper PMC9170038.

Test system: MS2 coat protein
Experiment: apparent KD of MS2 coat protein; designed switch direction (-1 OFF switch, 1 ON switch): -1; higher = weaker reporter binding
Method in brief: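 The reported apparent KD is a per-design median over clusters, from curve fits of normalised cluster fluorescence. Protein titrations used SNAP-549-labelled MS2 coat protein, doubled from 0.7 or 1.5 nM to 3 µM, in Tris-HCl pH 7.5 buffer with KCl, MgCl2, BSA, DTT, tRNA and Tween-20, with no input, 200 uM small-molecule ligand, or an oligonucleotide input. The RNA switches were transcribed on Illumina chips by stalled E. coli RNA polymerase.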

[1] = input ligand: microRNA oligo, concentration not stated
[2] = Eterna round: R95, input ligand: microRNA oligo, concentration not stated
[3] = Eterna round: R95, input ligand: FMN 200 uM
[4] = Eterna round: R95, input ligand: none

## GCCUGUGCCCUAGGAUAUCGCCCAGCCAAUGGAUGAGAAGGAGGCGGGUGAAACAUGAGGAUCACCCAUGUAAACGCACAAGCA [Inusri] (Eterna round: R96, puzzle: Exclusion NG 1)
Input ligand: FMN 200 uM
  apparent KD of MS2 coat protein: 102 nM
[1]
  apparent KD of MS2 coat protein: 14.5 nM
Input ligand: none
  apparent KD of MS2 coat protein: 22.7 nM

## AAAACAGUGUAGGAUAUGGCUGGGCUGAAAAUGCUAGAAGGACACACAUGAGGAUCACCCAUGUGACUUCGUGC [Atri] (puzzle: Exclusion 6)
[2]
  apparent KD of MS2 coat protein: 12.5 nM

## CUGUACUGAGGAUAUACAUGAGGAUCACCCAUGUGUACCAGCUAGGAAACUAGCAAAAGUAGAAGGCAGUACAG [Mat - Exclusion 3 - Eli Mod - D62] (Eterna round: R97, puzzle: Exclusion 3)
Input ligand: FMN 200 uM
  apparent KD of MS2 coat protein: 27.6 nM
Input ligand: none
  apparent KD of MS2 coat protein: 13.3 nM

## GCCGGAUUUGUGAGGAUAUACCUAUGGAUACAUAGGUAGAAGGCACAUGAGGAUCACCCAUGUACCUCUCCGGC [JL-BMX4-4.19 Eli mod] (Eterna round: R97, puzzle: Brourd's mod of Exclusion 4)
Input ligand: FMN 200 uM
  apparent KD of MS2 coat protein: 91.9 nM
Input ligand: none
  apparent KD of MS2 coat protein: 19.5 nM

## CAGCUGAAAGUGAGGAUAUCUAGAGCCUCGGCUCUAGAGAAGGCACAUGAGGAUCACCCAUGUCUCAACAGCUG [BmEx4/1-A2] (Eterna round: R97, puzzle: Brourd's mod of Exclusion 4)
Input ligand: FMN 200 uM
  apparent KD of MS2 coat protein: 67.1 nM
Input ligand: none
  apparent KD of MS2 coat protein: 19.6 nM

## CGCGACUCAGGAUAUACAUGAGGAUCACCCAUGUGGAACUACUGGGUCGAUAAAAGGUGUAGAAGGGAGGAAAU [Veveesla] (puzzle: Exclusion 3)
[3]
  apparent KD of MS2 coat protein: 14.3 nM
[2]
  apparent KD of MS2 coat protein: 10.5 nM
[4]
  apparent KD of MS2 coat protein: 13.5 nM

## UGUUCGGUAGGAUAUACAUCGCUGAAGUGGCGGUGACUUCAACAUGAGGAUCACCCAUGUAGAAGGGCCGGCUC [EX2 C.4] (Eterna round: R97, puzzle: Exclusion 2)
Input ligand: FMN 200 uM
  apparent KD of MS2 coat protein: 17.3 nM
Input ligand: none
  apparent KD of MS2 coat protein: 16.5 nM

## AAAAAGUGAGGAUAUACAUAAGGACCCGGGAGGGAAAUAAAACAUGAGGAUCACCCAUGUAGAAGGCACAAAAA [Exclss2-I] (puzzle: Exclusion 2)
[3]
  apparent KD of MS2 coat protein: 20.2 nM
[2]
  apparent KD of MS2 coat protein: 22.2 nM
[4]
  apparent KD of MS2 coat protein: 13.5 nM

## UGGUAACAUGAGGAUCACCCAUGUCAGGAUAUCAUGAAGAGGAGAGGAGAGGAGAGGAUGAGAAGGGACUAUAU [Excluse me! 13 - Jieux - Exclusion 1] (puzzle: Exclusion 1)
[3]
  apparent KD of MS2 coat protein: 39 nM
[2]
  apparent KD of MS2 coat protein: 30.4 nM
[4]
  apparent KD of MS2 coat protein: 38.4 nM

## GCCUCACAUGAGGAUCACCCAUGUCAGGAUAUACCCAUCCAGCGAAAUAAACGCUGUAGUAGAAGGGACAUGCA [Anlaat] (Eterna round: R97, puzzle: Exclusion 1)
Input ligand: FMN 200 uM
  apparent KD of MS2 coat protein: 40.3 nM
Input ligand: none
  apparent KD of MS2 coat protein: 15.3 nM

## ACACACACAGGAUAUCUUCCGCAUGACAUGAGGAUCACCCAUGUGUGCAUGCCCAAAAGUAGAGAAGGGUGUGUGU [eternacac ex5r4 #2] (Eterna round: R97, puzzle: Exclusion 5)
Input ligand: FMN 200 uM
  apparent KD of MS2 coat protein: 26.2 nM
Input ligand: none
  apparent KD of MS2 coat protein: 29.2 nM

## CCGAGGUGGCGGUCCUAUGACAUGAGGAUCACCCAUGUACCUCGCCACGAGCUUUUUGCUCACCUUAUAAUUCUCGG [Ragequen] (puzzle: Sensor v3, turn-off variant 1)
[3]
  apparent KD of MS2 coat protein: 18.7 nM
[2]
  apparent KD of MS2 coat protein: 17.6 nM
[4]
  apparent KD of MS2 coat protein: 19.4 nM

## GCGUUUUGGUGAGGAUAUCGGCCCGAAACCGGGCAACAUGAGGAUCACCCAUGUACGUGAUCCUGCGAGAAGGCACCGAUUAUA [Bedi] (Eterna round: R96, puzzle: Exclusion NG 2)
Input ligand: FMN 200 uM
  apparent KD of MS2 coat protein: 990 nM
[1]
  apparent KD of MS2 coat protein: 60.7 nM
Input ligand: none
  apparent KD of MS2 coat protein: 964 nM

## CUAGAUCUUCGGAUCUAGUACAUGAGGAUCACCCAUGUUACGAGCUGAUUUUCAUACAAGCUUUUUGCUCGUCUUAU [Sensor v3 - Turn-off variant 1 - 29] (puzzle: Sensor v3, turn-off variant 1)
[3]
  apparent KD of MS2 coat protein: 38.1 nM
[2]
  apparent KD of MS2 coat protein: 297 nM
[4]
  apparent KD of MS2 coat protein: 41.3 nM

## GAAUAGAGAGGAUAUGCGAAGUAGGUAGUAAGAUAUAUCUGACAUGAGGAUCACCCAUGUAGAAGGCUCAGAUC [EX2 #4] (Eterna round: R97, puzzle: Exclusion 2)
Input ligand: FMN 200 uM
  apparent KD of MS2 coat protein: 34.8 nM
Input ligand: none
  apparent KD of MS2 coat protein: 35.2 nM

## UGUUGUUACGCAGGAUAUGGCCAACAGGCCCUAGGAUAUCCGAAAGGAGAAGGAGCGCCAACAGGCGAGAAGGGCGGGUUAACA [pwkr exNG2 2xF7 2xFMN.14] (Eterna round: R96, puzzle: Exclusion NG 2)
Input ligand: FMN 200 uM
  apparent KD of MS2 coat protein: 201 nM
[1]
  apparent KD of MS2 coat protein: 55.7 nM
Input ligand: none
  apparent KD of MS2 coat protein: 140 nM

## CCCACAAGCUUUUUGCUCGACAUGAGGAUCACCCAUGUUGAAUGGGUUAUAUGUGUGUGAUACAUAUAUAUGUACCU [-24.7, -47.9 kcal, A 26%] (Eterna round: R97, puzzle: Sensor, turn-off variant 1)
Input ligand: FMN 200 uM
  apparent KD of MS2 coat protein: 23.2 nM
Input ligand: none
  apparent KD of MS2 coat protein: 23.5 nM

## CAAGCAGAAUAAAGGUCCGACAUGAGGAUCACCCAUGUUCGUCGGGAUAUGCUUCCUUUACGAGGGAGCACCAGAAA [Eternabot (L2) Solution 25] (Eterna round: R97, puzzle: Sensor, turn-off variant 1)
Input ligand: FMN 200 uM
  apparent KD of MS2 coat protein: 34.3 nM
Input ligand: none
  apparent KD of MS2 coat protein: 38.2 nM

## CAUUGUUAUCGAGGAUAUCGUAUUGAGAUACUACGAGAAGGCGGAAUAAACAUGAGGAUCACCCAUGUGAGACGGAUGCUUGUG [Ex NG1 #34] (Eterna round: R96, puzzle: Exclusion NG 1)
Input ligand: FMN 200 uM
  apparent KD of MS2 coat protein: 34.1 nM
[1]
  apparent KD of MS2 coat protein: 16 nM
Input ligand: none
  apparent KD of MS2 coat protein: 28.3 nM

## UUUUUAGUGCUUUUUAAGUACAUGAGGAUCACCCAUGUACUUGUCUGGUGGUCCGGACAAGCUUUUUGCUCGUCUAC [Sensor v3 - turn-off variant 1 - 2] (puzzle: Sensor v3, turn-off variant 1)
[3]
  apparent KD of MS2 coat protein: 49.5 nM
[2]
  apparent KD of MS2 coat protein: 30.5 nM
[4]
  apparent KD of MS2 coat protein: 54.3 nM

## GGAAAGGUAGGAUAUACGAAGAAAAAGGGUAGAAGAAAAACACAUGAGGAUCACCCAUGUAGAAGGACCAAAGG [Mat - Exclusion 2 - Mod of my Tesla design - D2] (puzzle: Exclusion 2)
[3]
  apparent KD of MS2 coat protein: 51.4 nM
[2]
  apparent KD of MS2 coat protein: 22.1 nM
[4]
  apparent KD of MS2 coat protein: 23.4 nM

## AAAUAGCAUGAGGAUAUUGGACUGUAUUCAGUACGAGAAGGCAUGACAUGAGGAUCACCCAUGUUUUGUUGGGA [EX6 #6] (Eterna round: R97, puzzle: Exclusion 6)
Input ligand: FMN 200 uM
  apparent KD of MS2 coat protein: 222 nM
Input ligand: none
  apparent KD of MS2 coat protein: 67.5 nM

## CUGGACCGAGGAUAUAUUAUGUGAAACAUGAGGAUCACCCAUGUAAUAUGAUGGAUGUAAAUAGAAGGCGGUCUAG [Mat - Exclusion 5 - JL mod - D28] (puzzle: Exclusion 5)
[3]
  apparent KD of MS2 coat protein: 34.5 nM
[2]
  apparent KD of MS2 coat protein: 35.1 nM
[4]
  apparent KD of MS2 coat protein: 47.3 nM

## GGAUCGAGUGUGAGGAUAUACCUAUGGAUACAUAGGUAGAAGGCACAUGAGGAUCACCCAUGUUCCUACGGUCC [Eli bmx4 4.08] (Eterna round: R97, puzzle: Brourd's mod of Exclusion 4)
Input ligand: FMN 200 uM
  apparent KD of MS2 coat protein: 713 nM
Input ligand: none
  apparent KD of MS2 coat protein: 62.3 nM

## AUCAUGUCAGGAUAUGUGACAUGGAUCUUCGGAUCAAGAUCACAGAAGGGACAUGAGGAUCACCCAUGUCGAUC [Ex4-3: 29] (puzzle: Exclusion 4)
[2]
  apparent KD of MS2 coat protein: 66.9 nM

## CUGUGCACGCUGCGGUCCUACAUGAGGAUCACCCAUGUGGUCUGGUGGCGUGGGUCACCGGACUUGGCUCGUCUUGC [salish99_S_TOV1_R5_062] (Eterna round: R97, puzzle: Sensor, turn-off variant 1)
Input ligand: FMN 200 uM
  apparent KD of MS2 coat protein: 22.9 nM
Input ligand: none
  apparent KD of MS2 coat protein: 22.5 nM

## UUUUAACAUGAGGAUCACCCAUGUGAGGAUAUCGAAAUUUAUAUUAAUAUUAUUUAUACGAGAAGGCACAUUUU [JMF 46] (puzzle: Exclusion 1)
[2]
  apparent KD of MS2 coat protein: 64.9 nM

## GCCGGUCAUGUAGGAUAUGGCCGGCGGUGCCGGCCAGAAGGACAUGAGGAUCACCCAUGUGCCGGCCUUUGGCCGGCACCCGGC (Eterna round: R96, puzzle: Exclusion NG 1)
Input ligand: FMN 200 uM
  apparent KD of MS2 coat protein: 10.3 nM
[1]
  apparent KD of MS2 coat protein: 8.76 nM
Input ligand: none
  apparent KD of MS2 coat protein: 17.2 nM

## UUUUGGCAGGUAAUUAUUAACAUGAGGAUCACCCAUGUGCAUCCAAAAUUACUUUUAGAUCAAGCUCGUCUUAUAUA [JR_STOV1_Sub088] (Eterna round: R97, puzzle: Sensor, turn-off variant 1)
Input ligand: FMN 200 uM
  apparent KD of MS2 coat protein: 34 nM
Input ligand: none
  apparent KD of MS2 coat protein: 35.2 nM

## GGUCUGCGAGGAUAUACAUGAGGAUCACCCAUGUGCGAGAUACUAGUGAGGUCGGUUGGUAGAAGGCGCGGACG [JL-ex3-2.07 salish99 mod] (puzzle: Exclusion 3)
[3]
  apparent KD of MS2 coat protein: 58.8 nM
[2]
  apparent KD of MS2 coat protein: 37.1 nM
[4]
  apparent KD of MS2 coat protein: 55.6 nM

## GGUCUGCGAGGAUAUACAUGAGGAUCACCCAUGUGAGAGAUACUAGUGAGGUCGAUUGGUAGAAGGCGCGGACG [JL-ex3-2.03 salish99 mod] (puzzle: Exclusion 3)
[3]
  apparent KD of MS2 coat protein: 13.1 nM
[2]
  apparent KD of MS2 coat protein: 124 nM
[4]
  apparent KD of MS2 coat protein: 115 nM

## AUCAGCUCGUGAGGAUAUACAUGCGUGCUUCGGCACGAAUUUAAGAUCACAUGAGGAUCACCCAUGUAGAAGGUACGAGCUGAU [ENG2/3-C3] (Eterna round: R96, puzzle: Exclusion NG 2)
Input ligand: FMN 200 uM
  apparent KD of MS2 coat protein: 498 nM
[1]
  apparent KD of MS2 coat protein: 287 nM
Input ligand: none
  apparent KD of MS2 coat protein: 275 nM

## AAGGGUGCUUUCAGAACGACAUGAGGAUCACCCAUGUAGACUGAGGAUAUCUACUUCUAAGGACGGGAGAAGGCAGUGUAAUGC [Ex NG3 #68] (Eterna round: R96, puzzle: Exclusion NG 3)
Input ligand: FMN 200 uM
  apparent KD of MS2 coat protein: 23.1 nM
[1]
  apparent KD of MS2 coat protein: 19.5 nM
Input ligand: none
  apparent KD of MS2 coat protein: 21.6 nM

## GGGUCACAUGAGGAUCACCCAUGUGAGGAUAUGAUACUAUGUACUUCGGUACAUAGUAUCAGAAGGCACAUAAA [Ex1-3: 18] (puzzle: Exclusion 1)
[2]
  apparent KD of MS2 coat protein: 36.6 nM
